Data on twelve sequences can be found in a protein production outcome set (Wang et al. 2014).

The series is described as follows: label from the status in PepcDB records.
For “MPEASSPASEKSLSRLLLELLWQLAALLIPIFFVTLLPPPAALGVLLGCAAAMTLAARLGWPKTARGLARLMISAAFGLGFSLGRALPAYWDIAAAFTSIFAGLAAVSHLERRLGLVQPSPTPISAWGGNEPQQTPEGQPIRVFNHGEIAMGGPTYCDYLFPDGVLLQGLGSSARFSSDGRYFAAPLPSRQHWGLAILDREQRRLYRCNREHFWELDAFSADTLSGRHSPLVDNGQHQASLNSLLQEAECVELVAVADLWLEPGQWLEALARQDFEESAPHGSHRLHASLALPASLRALEQPLEPLRTPPYRISIDGQPSGLLLRADAPRIWRDDGRALACIAHEQAQPEAACCWLWQADKGWRALPAPWVASHAEPSFYPGPLLSLDRHWLGYSAYLDLAEADHGRYGYRLHSTHSDSETGVGHDRQGCLQVAPLPLTRTQLLQPLDGSGARGESRIQSQPLLGEQRALFSWLTDNPRGLGAYRCQIGTWQLPGCWLLDHRVSDCQRYLALLPWSETLELAPQVVVADLQQQRLIYSPALLAARLLDFRQGRLSLAVLVGRLDPDHASSPLQRFNRPAPAPEHAAAFCTEGPASQPCYERQDWLVIDDQLQPVAPWRLVDRPQAAVAEGDFIQPAPDGRDAAWLFGSETEYADSWLRETSPRLGGHLLTASGCAVGDLAPSLIWSTDARYLALTRLRLGAGDPQQGYRAWQLLLLDVQERSLRIAPDWLRHRPLFQHFDARGLALQLFERDWQAADDPDPGRSLEWALEDLLRLPAEPLREHQGLWLSAADWPQARAWQALRRPAHPAFRAGA”, the protein production result was “failed”.

For “MPEEVSNEIEAPSLHTPEEVLLHYWGYPSFRPVQLPIIESVLAGKDTLGLLPTGGGKSITFQVPGLLLPGLTLVVTPLIALMRDQIMGLRQKGIKATAVHAGMTREQIITTLDNCIYGRYKFLYVSPERLGSELFLSRLHALRVSLLVVDECHCISQWGYDFRPAYLSIADIREALPDVPVLALTATATRPVIDDIQRILRFPEPNVLRKSFFRPNLSYSIRRTADKETMLLHILSRVDGSAVVYCRNRDKARDLARFLGENGFSADFYHAGLNHVTREIRQKSWMEGETRIIVCTNAFGMGIDKPDVRLVLHMEMPSSPEEYFQEAGRAGRDGERAYAVLLAGEDDIFNLKRRVSNEFPPREYIATVYNRICNYLQIGEGEGFERSFDFDIDAFCRNFRMFPTQVLAAIRILDVAGIWEYREEKTRSRLTIQVQRDELYRMRSEQASDSVLTALMRTYDGLFADYVSIVESELAEKTGLSVDQVYQQLLLLNKAGIVNYIPQKNLPRIYFLTRREDAELLQIPRAAYEDRRDRLKARIDQSLRYIEEENTCRSRMLLAYFGEEQSHNCKLCDVCLRRKDGELHHHEVDDLLHFLEQRLTEETPYVLIADICRELHHHPDVVLKAIRFVMKESWQYSTDGDTVFLTHKLPGGLNL”, the protein production result was “failed”. As to “MPEGHRATAIYFRHLLLIRVEIENIVNTLAICRHTFYISSLSLPCNLNKLIIMENLQSNLFYSLAGVAAVASLASCTNKQKTTEQKPLNIVYIMTDDHTAQMMSCYDTRYMETPNLDRIAADGVRFTQSFVANSLSGPSRACMITGKHSCANKFYDNTTCVFDSSQQTFPKLLQKVGYQTALVGKWHLESLPSGFNYWQIVPGQGDYYNPAFITQDNDTIQKHGYITNLITDDAIDWMENKRDPEKPFCLLIHHKAIHRNWMADTCNLALYEDKTFPLPDNFFDDYEGRPAAAAQEMSIVKDMDMIYDLKMLRPNEKSRLRSLYERFLGRMDEGQRAAWDKFYAPIIDDFYKQNLTGKELANWKFQRYMRDYMKTVKSLDDNVGRVLDYLKEKGLLDNTLVVYTSDQGFYMGEHGWFDKRFMYEESMRTPLIMRLPKGFDRRGDITEMVQNIDYAPTFLELAGAEIPADIHGVSLLPLLKGEHPKDWRKSLYYHFYEYPAEHMVKRHYGVRTERYKLIHFYNDINWWELYDMQADPSEMHNLYGEAEYEPVVKELKDELLKLQEQYNDPVRFSPERDKE”, the protein production entry is “failed”.

As to “MPEGLATAQAKYNGAAGRAFVEGLPALAAGFLERWELRLDGPSMHGWAALVLPVVRRDGTGAVLKLQILDAETEGEPLALRVWDGDGAVRLLDHDPATGTMLLERLDAGRMLSHVADSREAVLVIARLLAHLTATPAPPGVRRLGDIARGMLERTPGTLERIPDPADRRLVADCAAAVREVVDEPGDRLLHWDLHYENVLAADRAPWIAIDPKPLAGDPGFDLLPALDNRYDPGETRWRFDALTDVLGLDRERARAWSLGRVLQNSLWNVEDGDPLETEQMEIGRLLRDL”, the protein production result is recorded as “failed”. As for “MPEITLKVDSAYPEDQGNGKARLDPSAMQALNVSPGDLVRITGKTSTVAKVWRSFESDWNMEKIRIDKYTRANASVNPGDRVTVEKVEEEIPATSVTLVSPSEISAAFPDEEDDYLISLINFPVSLDDIIPIKTFHPGPPLEFKVSAIEPENACILNKMTELVFNDDDEFDGTKAITYEDIGGLKGELKRVREMIELPIRHPELFETMGIEPPKGVLLYGPPGTGKTLIAKAVANESGAHFISIAGPEIISKYYGESEQKLREIFEEAEEEAPSIIFIDELDSIAPKREDVNGEVERRVVAQLLTMLDGITDRGQVIVIGATNRPDAIDPALRRPGRFDREIEIGVPAEADRMEILQIHTKDMPFEGMAKLKELRSSEPSETVLEKALADYEASRDKLLWMLASQAKGFVGADLAALAREAAIRALRRQIDVADIDNEKIPEEVLRKLEVTTSDFILASREVAPSAMREIALETADVSWTDIGGSRDAVRDVRESVEFPLTRKEVFAQLGIRPPKGVLLYGPPGTGKTMIAKAVAHESGANFIAVKGPELLSKWVGESEKAVRDIFKKARQVAPAIIFFDELDSLTPSRGASDGSRTTENVLNQILTEMDGIEELNDVMILAASNRPDIIDPALLRSGRFDRLVYISEPEEADRKEILAVHMQNMPIEGSSFDEAVKEVSGLNEASLESLGAKFSGKSVTIKQIKTAAGKYTKGTPLSLIEERRRLAAVLRQHAVTLSDPEKTKLIRQLAEDTAGYVGSDLEGLCREAAMHALRNQANVVTADDFAEARKKIHPTMNERVREYYISISQRFKGGLPKEAQNLIEYQ”, the protein production entry is “failed”. As for “MPEPHAVLYVTNELSHIVKNEFLPIWKLTGDESLNDLWLENGKYATDVYAYGDVSKWTIRQLRGHGFIFISTHKNVQLADIIKTVDVRVPREVARSHDMKAFENEIGRRRIRMRKGFGDALRNYAFKMAIEFHGSEAETLNDANPRLHKIYGMPEIPPLYMEYAEIGTRFDDEPTDEKLVSMLHYIVYSAEEVHYIGCGDLRTLMQFKKRSPGRFRRVLWHVYDPIAPECSDPNVIVHNIMVDSKKDILKHMNFLKRVERPFIWDVSSDRSQMNDHEWETTRFAEDRLGEEIAYEMGGAFSSALIKHRIPNSKDEYHCISTYLFPQPGADADMYELRNFMRLRGYSHVDRHMHPDASVTKVVSRDVRKMVELYHGRDCGSFLKKRLFEHLHIVRKNGLLHESDEPRADLFYLTNRCNMGLEPSIYEVMKKSVIATAWVGRAPLYDYDDFALPRSTVMLNGSYRDIRILDGNGAILFLMWRYPDIVKKDLTYDPAWAMNFAVSLKEPIPDPPVPDISLCRFIGLRVESSVLRVRNPTLHETADELKRMGLDLSGHLYVTLMSGAYVTDLFWWFKMILDWSAQNREQKLRDLKRSAAEVIEWKEQMAERPWHVRNDLIAALREYKRKMGMREGASIDSWLELLRHL”, the entry is “not failed”.

As to “MPERVKRKRYALVGTGNRGTTMWGRELLAGWSDYVELVGICDLNLMRAERARAMMGSNAPLYDDFDRMMVEQRPELVIVCTPDDTHDDIIIRALEGGADVISEKPMTTTPEKIDRIRAAEAKSGRRVDVSFNYRFSPTAARIKELIDDGAIGTVTSVDFHWYLDNQHGADYFRRWHAFTEHSGSLFVHKATHHFDLLNWYLDSDPVEVKGFGQLLHYGKNGPFRGTRCRTCPHKDECDYFMDLGADPFLDALYEDPSSIDGYMRDACVFREEIDIPDTMSASIRYASGVQVSYSLNTYMPIEGHHIAFNGHKGRIEMRQYEKQPWAEPPADEILVVKSFGGGVERIWVPHEPGGHYGGDNRMRDMIFKPGSNDRLRQRAGSRAGAMSVLCGVAALKSARDGGSQPIKSLPL”, the protein production result was “failed”. The entry for “MPESYWEKVSGKNIPSSLDLYPIIHNYLQEDDEILDIGCGSGKISLELASKGYSVTGIDINSEAIRLAETAARSPGLNQKTGGKAEFKVENASSLSFHDSSFDFAVMQAFLTSVPDPKERSRIIKEVFRVLKPGAYLYLVEFGQNWHLKLYRKRYLHDFPITKEEGSFLARDPETGETEFIAHHFTEKELVFLLTDCRFEIDYFRVKELETRTGNKILGFVIIAQKLLEHHHHHH” is “not failed”. As for “MPEVVFYPQNKSINVEEGTTILQAARSAGVIIESPCNGTGTCGKCKVRLDEKSLPNVLAKSRHYLSKEEEEQGYVLACETQITGDIKVELGENKQNGTLKILSRGHSFNIDLKPFIRKEYFVHEDVTKVFAGKEQLGIEAGDTTKENYGAVVDIGTTTLVASIVNLNNGDEIGTSSALNPQAVHAQDVLSRIKFSSDADGLKVMHSELTDKINSMIGKIALRAGISKEHIYEIVFSGNTCMLHLASNTCPESLGKYPYTPKISGAAYLDAAKYNIDISPFGIIYLPPIISAYVGADIVSGILASQLHEKDGVILFVDIGTNGEMVLASCGNLSATSTAAGPAFEGMNITCGMRAGEAAIEFFEIEEQGSINIKVIGETEAAGICGSGLLDMVGEFAAHGVIKKNGQFIDPESENVLHPKLAERLVRQDGKWIFKVTDKVFLSQKDIRQVQLAKGAVRAGIEFLLENKGVRASDVDKVLIAGSFGYHLREKSLINIGLLPKEFEGKVEFVGNTSLSGAKAFLLNQTYREKMKETVKSVEVLELANYKDFDRVFVRCLSFLEHHHHHH”, the protein production result is given as “failed”. As for “MPFSKNLENLTAPFKRIKNRSLVLALGFLILTFCLLLFLILSDVSRLISGKDFFYVIQSHPKQTLIEDENYFYANKGLYKTNKEAFLRVYKIPESMPIERRENLSKVSKIFLALLFFISSMLFGIFWRLPKRLDTKMSLESAHKNELENAFQRYDALGVRFEDIAGVDEVKEELLEVIDYLKNPKKYQDLGIFLPKGVLLIGPPGVGKTMIAKALASEARVPFFYESGSAFSQIYVGAGAKKVHELFMHAKRHAPSIIFIDEIDALGKARGGHRSDEREATLNQLLTEMDGFLQNDEVVVIGATNQMEVMDEALLRSKRFDRRIFISLPDLLERQSILEKLLENKKHALNYLKIAKICVGFSGAMLATLINESALNALKHQRTEIAESDILEVKDKIAYGKKKPQTLDENQKELVALYQSAKALSAYWLEIEFDKAPILGEFIAFNENKIHSESEIKNYIKVYLSGTIILELLYKERYSLSKQDLQKAKFLNEFMASELLLAPTKESLSVLYEEQLEFLKPQIAACKRLSVLLLEQEYLEHSNLYDLLNG”, the entry is “failed”; as for “MPGAMHDEPDHPELSITVPTLNEAEGLERFFAMLSAQQGVRFELVIADGGSTDGTPESARRLAAATPFAATVIETGRGRGRQMNAGAAAAAGDTLLFLHADCAFPDPLALRTALDAFTQTVAAGGSHRVAGHFRLRFERTDSAPSLPYYFYEWKARLHRPGCTHGDQGLLLGRRFFAEAGPFDESFPILEDVGLAERIAALGEWLLLPAEIVTSARRFEAEGLRERQTLNALLMNFAAMGWDPFLAELPRLYQSQDRAGRLLLGPVLRLIARLLRPLPRRERGRLWRETGRYVRANAWQIPFFLDVRRHFRQGTPVGEGETPRLDLHDRIFDRLTENGAGHRATALLVWIWFRLSLLREPLTPPAARNPEGNGSLEHHHHHH”, “not failed”; as for “MPGFNYGGDQDEVYTPYRRVLVTGATGLLGRAVYKEFKNNDWDALGCGYNRARPFFLKCNLLDEDAVRGVIQSFQPHVIVHCAAERRPDVVERHTEAAMNLNVHACATLAKEAGGSFLIYISTDYVFDGRNPPYGENDAPNPLNLYGKSKLEGEREILRHCPGAAVLRVPILFGEVEKVEESAVTVLFERVQEGAESCTIDHCQQRFPTYTNDVARVCRNMAERALQDQSLRGIFHYSAKEQMTKYEMTCAIADAFNLPSSHLIPMTEQPAGAGAQRPQNAQLECSRLELLGLSVESTPFKNAIRDSLWPFQHDKRWRQTVFH”, “not failed”.
